The results in this text go back to patent publication EP4707298A2 (INSTITUTO BUTANTAN, dated 2026).

The target in assay [1] is T1, rFGF2 antigen (recombinant fibroblast growth factor 2) (UniProt P09038 143-288, limits assumed).
T1 construct: also called FGF2 protein
As to the kind of experiment: SPR kinetic affinity assay. Background: In SPR one partner is held on a chip, and binding of the other changes the refractive index at the surface.

The target in assay [2] is rFGF2 antigen (recombinant fibroblast growth factor 2) (UniProt P09038). As to the kind of experiment: SPR kinetic affinity assay.
Sequence of rFGF2 antigen (recombinant fibroblast growth factor 2) (UniProt P09038) (P09038 143-288 limits assumed): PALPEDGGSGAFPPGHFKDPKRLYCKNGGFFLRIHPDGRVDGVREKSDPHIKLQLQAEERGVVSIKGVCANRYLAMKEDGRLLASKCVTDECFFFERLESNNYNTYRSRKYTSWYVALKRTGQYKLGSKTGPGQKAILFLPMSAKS

T1 sequence (P09038 143-288 limits assumed): as above

B1: human anti-FGF2 antibody 85L117H (antibody, human IgG1, V domains shown)
VH: QVQLVQSGAELKRPGSSVKVSCRASGDTFKNYAITWVRQAPGQGLEWVGGIDPLVGVPNYTHRFQGRVTITADEPTSTTYMEFRDLTSDDTAVYYCARGVRDQHWSYFDSWGQGTLVTVSS
VL: QSVLTQPPSASGTPGQTVNISCSGATSNIGGGSVNWYQQLPGAAPRLLIHSDNERASGVPDRFSGSKSGTSASLAISGLQSEDEADYFCASWDDSLDGHVVFGGGTKVTVL
notes: Human IgG1 format (AbVec vectors with human gamma1 HC and lambda LC constant regions)
For orientation: Kd means a measure of binding affinity in units of concentration. The koff is the rate constant with which the complex falls apart. Broadly, the kon is the rate constant with which the complex forms. With B1, in assay [1], the Kd stood at 17 nM, the koff was found to be 0.000834 s⁻¹ and the kon was 49200 M⁻¹ s⁻¹.

B2: human anti-FGF2 antibody 32L98H (antibody, part only; not given: light chain 32L, human IgG1, V domains shown, part only)
VH: QITLKESGPTLVKPTQTLTLTCTFSGFSLSTSGVGVGWIRQPPGEALEWLAVIHWNEANYYSPYLRSRLTITKDTSKNQMVLTVTNMDPVDTATYYCARGANSDSSGRLDAFDIWGQGTMVTVSS
With B2, in assay [2], the dissociation constant Kd turned out to be 8.53 nM, the dissociation rate constant (koff) came out at 0.00326 s⁻¹ and the kon came out at 382000 M⁻¹ s⁻¹.

B3: human anti-FGF2 antibody 62K98H (antibody, human IgG1, V domains shown)
VH: QITLKESGPTLVKPTQTLTLTCTFSGFSLSTSGVGVGWIRQPPGEALEWLAVIHWNEANYYSPYLRSRLTITKDTSKNQMVLTVTNMDPVDTATYYCARGANSDSSGRLDAFDIWGQGTMVTVSS
VL: DVVMTQSPLSLPVTLGQPASISCRSSQSLIYSDGNTRLYWFHQRPGQSPRRLIYGVSNRDSGVPDRFSGSGSGTDFTLKISRVEAEDVGVYYCMQSTHWPHTFGQGTKLEIK
notes: Human IgG1 format (AbVec vectors with human gamma1 HC and kappa LC constant regions)
As to B3, in assay [1], the Kd came to 9.1 nM, the koff was 0.00156 s⁻¹ and the kon was 171000 M⁻¹ s⁻¹.
